Results taken from patent US9957299B2, “Peptidomimetic macrocycles” (AILERON THERAPEUTICS, INC., priority 2010, dated 2018).
Numbered stars: 1 amine (or outer) side, 2 acyl side, 3 side chain; on linkers, the order of the positions; unused ones are H or OH. Bridge positions count the residues as written; N and C are the ends. Square brackets hold non-standard residues; d marks the D form. Peptide text beside a SMILES is read from it. X2 = C[C@@](Cc1c[nH]c2cc(Cl)ccc12)(N[*:1])C(=O)[*:2]; Trp(6-Cl) = N[C@@H](Cc1c[nH]c2cc(Cl)ccc12)C(=O)O; R8 = C=CCCCCCC[C@@](C)(N)C(=O)O; S5 = C=CCCC[C@](C)(N)C(=O)O; Ac3c = NC1(C(=O)O)CC1; Aib = CC(C)(N)C(=O)O

test: circular dichroism; settings: aqueous, '0% TFE' (buffer not stated; general: 50 mM potassium phosphate pH 7 or water); pH ns; ns °C; 25-50 uM (general text)

Which helicity does the source give for `C=CCCCCCC[C@@](C)(NC(=O)[C@H](Cc1ccccc1)NC(=O)[C@@H](NC(=O)[C@H](CCC(N)=O)NC(=O)[C@H](CCC(N)=O)NC(=O)[C@H](CO)NC(=O)[C@H](CCC(N)=O)NC(C)=O)[C@@H](C)O)C(=O)N[C@@H](CC(N)=O)C(=O)N[C@@H](CC(C)C)C(=O)N[C@@H](Cc1c[nH]c2ccccc12)C(=O)N[C@@H](CCCNC(=N)N)C(=O)N[C@@H](CC(C)C)C(=O)N[C@@H](CC(C)C)C(=O)N[C@@](C)(CCCC=C)C(=O)N[C@@H](CCC(N)=O)C(=O)N[C@@H](CC(N)=O)C(N)=O` here?
Its helicity is 55%.

For `CC(=O)N[C@@H](CC(C)C)C(=O)N[C@H](C(=O)N[C@@H](Cc1ccccc1)C(=O)N[C@@H](CCC(=O)O)C(=O)N[C@@H](Cc1c[nH]cn1)C(=O)N[C@@H](Cc1ccc(O)cc1)C(=O)N[C@@H](Cc1c[nH]c2ccccc12)C(=O)N[C@@H](C)C(=O)N[C@@H](CCC(N)=O)C(=O)N[C@@H](CC(C)C)C(=O)N[C@H](C(=O)N[C@@H](CO)C(N)=O)[C@@H](C)O)[C@@H](C)O`, which helicity is on record?
Its helicity is -0.5%.

For `CC(=O)N[C@@H](CC(C)C)C(=O)N[C@H](C(=O)N[C@@H](Cc1ccccc1)C(=O)N[C@]1(C)CCCCCCC=CCCC[C@@](C)(C(=O)N[C@@H](CO)C(=O)N[C@@H](C)C(N)=O)NC(=O)[C@H](CC(C)C)NC(=O)[C@H](CCC(N)=O)NC(=O)[C@H](C)NC(=O)[C@H](Cc2c[nH]c3ccccc23)NC(=O)[C@H](Cc2ccc(O)cc2)NC(=O)[C@H](Cc2c[nH]cn2)NC1=O)[C@@H](C)O`, which helicity is on record?
The helicity was 80.8%.

Which helicity does the source give for `CC(=O)N[C@@H](CC(C)C)C(=O)N[C@H](C(=O)N[C@@H](Cc1ccccc1)C(=O)N[C@]1(C)CCCCCCCCCCC[C@@](C)(C(=O)N[C@@H](CO)C(=O)N[C@@H](C)C(N)=O)NC(=O)[C@H](CC(C)C)NC(=O)[C@H](CCC(N)=O)NC(=O)[C@H](C)NC(=O)[C@H](Cc2c[nH]c3ccccc23)NC(=O)[C@H](Cc2ccc(O)cc2)NC(=O)[C@H](Cc2c[nH]cn2)NC1=O)[C@@H](C)O` here?
The helicity was 78.4%.

Which helicity does the source give for `CC(=O)N[C@@H](CC(C)C)C(=O)N[C@H](C(=O)N[C@@H](Cc1ccccc1)C(=O)N[C@]1(C)CCCCCCCCCCC[C@@](C)(C(=O)N[C@@H](CO)C(N)=O)NC(=O)[C@H](CC(C)C)NC(=O)[C@H](CCC(N)=O)NC(=O)[C@H](C)NC(=O)[C@H](Cc2c[nH]c3cc(Cl)ccc23)NC(=O)[C@H](Cc2ccc(O)cc2)NC(=O)[C@H](Cc2c[nH]cn2)NC1=O)[C@@H](C)O` here?
The helicity was 69.5%.

For `CC(=O)N[C@@H](CC(C)C)C(=O)N[C@H](C(=O)N[C@@H](Cc1ccccc1)C(=O)N[C@]1(C)CCCCCCCCCCC[C@@](C)(C(=O)N[C@@H](CO)C(N)=O)NC(=O)[C@H](CC(C)C)NC(=O)[C@H](CCC(N)=O)NC(=O)[C@H](CCCNC(=N)N)NC(=O)[C@H](Cc2c[nH]c3cc(Cl)ccc23)NC(=O)[C@H](Cc2ccc(O)cc2)NC(=O)[C@H](Cc2c[nH]cn2)NC1=O)[C@@H](C)O`, which helicity is on record?
Its helicity is 74.2%.

With `CC(=O)N[C@@H](CCC(N)=O)C(=O)N[C@@H](CO)C(=O)N[C@@H](CCC(N)=O)C(=O)N[C@@H](CCC(N)=O)C(=O)N[C@H](C(=O)N[C@@H](Cc1ccccc1)C(=O)N[C@@H]1CCCCCCC=CCCC[C@@H](C(=O)N[C@@H](CCC(N)=O)C(=O)N[C@@H](CC(N)=O)C(N)=O)NC(=O)[C@H](CC(C)C)NC(=O)[C@H](CC(C)C)NC(=O)[C@H](CCCNC(=N)N)NC(=O)[C@H](Cc2c[nH]c3ccccc23)NC(=O)[C@H](CC(C)C)NC(=O)[C@H](CC(N)=O)NC1=O)[C@@H](C)O` as the compound, how does the helicity read?
The helicity was 50.5%.

For `CC(=O)N[C@@H](CCC(N)=O)C(=O)N[C@@H](CO)C(=O)N[C@@H](CCC(N)=O)C(=O)N[C@@H](CCC(N)=O)C(=O)N[C@H](C(=O)N[C@@H](Cc1ccccc1)C(=O)N[C@]1(C)CCCCCCCCCCC[C@@](C)(C(=O)N[C@@H](CCC(N)=O)C(=O)N[C@@H](CC(N)=O)C(N)=O)NC(=O)[C@H](CC(C)C)NC(=O)[C@H](CC(C)C)NC(=O)[C@H](CCCNC(=N)N)NC(=O)[C@H](Cc2c[nH]c3cc(Cl)ccc23)NC(=O)[C@H](CC(C)C)NC(=O)[C@H](CC(N)=O)NC1=O)[C@@H](C)O`, which helicity is on record?
Its helicity is 92.4%.

With `CC(=O)N[C@@H](CCC(N)=O)C(=O)N[C@@H](CO)C(=O)N[C@@H](CCC(N)=O)C(=O)N[C@@H](CCC(N)=O)C(=O)N[C@H](C(=O)N[C@@H](Cc1ccccc1)C(=O)N[C@]1(C)CCCCCCCCCCC[C@@](C)(C(=O)N[C@@H](CCC(N)=O)C(=O)N[C@@H](CC(N)=O)C(N)=O)NC(=O)[C@H](CC(C)C)NC(=O)[C@H](CC(C)C)NC(=O)[C@H](CCCNC(=N)N)NC(=O)[C@](C)(Cc2c[nH]c3cc(Cl)ccc23)NC(=O)[C@H](CC(C)C)NC(=O)[C@H](CC(N)=O)NC1=O)[C@@H](C)O` as the compound, how does the helicity read?
The helicity was 62.4%.

Which helicity does the source give for `CC(=O)N[C@@H](CCC(N)=O)C(=O)N[C@@H](CO)C(=O)N[C@@]1(C)CCCCCCCCC2(CCCCCCCCCCC[C@@](C)(C(=O)N[C@@H](CCC(N)=O)C(=O)N[C@@H](CC(N)=O)C(N)=O)NC(=O)[C@H](CC(C)C)NC(=O)[C@H](CC(C)C)NC(=O)[C@H](CCCNC(=N)N)NC(=O)[C@H](Cc3c[nH]c4ccccc34)NC(=O)[C@H](CC(C)C)NC(=O)[C@H](CC(N)=O)NC2=O)NC(=O)[C@H](Cc2ccccc2)NC(=O)[C@H]([C@@H](C)O)NC(=O)[C@H](CCC(N)=O)NC1=O` (some centres unmarked) here?
Its helicity is 96%.

For `CC(=O)N[C@@H](CCC(N)=O)C(=O)N[C@@H](CO)C(=O)N[C@]1(C)CCCC=CCCCC2(CCCC=CCCC[C@@](C)(C(=O)N[C@@H](CC(C)C)C(=O)N[C@@H](CC(C)C)C(=O)NC(C)(C)C(=O)N[C@@H](CCC(N)=O)C(=O)N[C@@H](CC(N)=O)C(N)=O)NC(=O)[C@H](Cc3c[nH]c4ccccc34)NC(=O)[C@H](CC(C)C)NC(=O)[C@H](CC(N)=O)NC2=O)NC(=O)[C@H](Cc2ccccc2)NC(=O)[C@H]([C@@H](C)O)NC(=O)[C@H](CCC(N)=O)NC1=O` (some centres unmarked), which helicity is on record?
The helicity was 0%.

Which helicity does the source give for `CC(=O)N[C@H](C(=O)N[C@@H](CO)C(=O)N[C@@H](Cc1ccccc1)C(=O)N[C@]1(C)CCCCCCCCCCC[C@@](C)(C(=O)N2CCC[C@H]2C(N)=O)NC(=O)[C@H](CC(C)C)NC(=O)[C@H](CC(C)C)NC(=O)[C@H](CC(N)=O)NC(=O)[C@H](Cc2c[nH]c3ccccc23)NC(=O)[C@H](Cc2ccc(O)cc2)NC(=O)[C@H](CCC(N)=O)NC1=O)[C@@H](C)O` here?
Its helicity is 2.6%.

For `CC(=O)N[C@]1(C)CCCCCCCCCCC[C@@](C)(C(=O)N[C@@H](CC(C)C)C(=O)N[C@@H](Cc2c[nH]c3ccccc23)C(=O)N[C@@H](CCCNC(=N)N)C(=O)N[C@@H](CC(C)C)C(=O)N[C@@H](CC(C)C)C(=O)NC(C)(C)C(=O)N[C@@H](CCC(N)=O)C(=O)N[C@@H](CC(N)=O)C(N)=O)NC(=O)[C@H](CO)NC(=O)[C@H](Cc2ccccc2)NC(=O)[C@H]([C@@H](C)O)NC(=O)[C@H](CCC(N)=O)NC(=O)[C@H](CCC(N)=O)NC(=O)[C@H](CO)NC1=O`, which helicity is on record?
The helicity was 66.7%.

For `CCCC[C@@H]1NC(=O)[C@H](CCCNC(=N)N)NC(=O)[C@H](Cc2c[nH]c3ccccc23)NC(=O)[C@H](CC(C)C)NC(=O)[C@H](CC(N)=O)NC(=O)[C@](C)(NC(=O)[C@H](Cc2ccccc2)NC(=O)[C@@H](NC(=O)[C@H](CCC(N)=O)NC(=O)[C@H](CCC(N)=O)NC(=O)[C@H](CO)NC(=O)[C@H](CCC(N)=O)NC(C)=O)[C@@H](C)O)CCCCCCCCCCC[C@@](C)(C(=O)N[C@@H](CCC(N)=O)C(=O)N[C@@H](CC(N)=O)C(N)=O)NC(=O)[C@H](CC(C)C)NC1=O`, which helicity is on record?
Its helicity is 84.7%.

Which helicity does the source give for `CCCC[C@H](NC(C)=O)C(=O)N1CCC[C@H]1C(=O)N[C@@H](CCCNC(=N)N)C(=O)N[C@@H](Cc1ccccc1)C(=O)N[C@]1(C)CCCCCCCCCCC[C@@](C)(C(=O)N[C@@H](CCC(N)=O)C(=O)N[C@@H](CC(N)=O)C(N)=O)NC(=O)[C@H](CC(C)C)NC(=O)[C@H](CC(C)C)NC(=O)[C@H](CCCNC(=N)N)NC(=O)[C@H](Cc2c[nH]c3ccccc23)NC(=O)[C@H](Cc2ccc(O)cc2)NC(=O)[C@H](CC(N)=O)NC1=O` here?
Its helicity is 61.6%.

Which helicity does the source give for `CC(=O)N[C@@H](C)C(=O)N[C@@H](C)C(=O)N[C@@H](C)C(=O)N[C@@H](CCCNC(=N)N)C(=O)N[C@@H](C)C(=O)N[C@@H](C)C(=O)N[C@]1(C)CCCCCCC=CCCC[C@@](C)(C(=O)N[C@@H](C)C(=O)N[C@@H](C)C(N)=O)NC(=O)[C@H](C)NC(=O)[C@H](C)NC(=O)[C@H](CCCNC(=N)N)NC(=O)[C@H](C)NC(=O)[C@H](C)NC(=O)[C@H](C)NC1=O` (Ac-AAARAA[R8]AAARAA[S5]AA-NH2; staple 7-14) here?
Its helicity is 131%.

For `CSCC[C@H](NC(=O)[C@H](Cc1ccccc1)NC(C)=O)C(=O)NC(C)(C)C(=O)N[C@@H](Cc1ccc(O)cc1)C(=O)N[C@@H](Cc1c[nH]c2cc(Cl)ccc12)C(=O)N[C@@H](CCC(=O)O)C(=O)NC1(C(=O)N[C@@H](CC(C)C)C(N)=O)CC1` (Ac-FM[Aib]Y[Trp(6-Cl)]E[Ac3c]L-NH2), which helicity is on record?
The helicity was -3.6%.

Which helicity does the source give for `CC(=O)N[C@@H](CC(C)C)C(=O)N[C@H](C(=O)N[C@@H](Cc1ccccc1)C(=O)N[C@]1(C)CCCCCCC=CCCC[C@@](C)(C(=O)N[C@@H](CO)C(N)=O)NC(=O)[C@H](CC(C)C)NC(=O)[C@H](CCC(N)=O)NC(=O)[C@H](CCCNC(=N)N)NC(=O)[C@H](Cc2c[nH]c3ccccc23)NC(=O)[C@H](Cc2ccc(O)cc2)NC(=O)[C@H](Cc2c[nH]cn2)NC1=O)[C@@H](C)O` (Ac-LTF[R8]HYWRQL[S5]S-NH2; staple 4-11) here?
Its helicity is 59.5%.

For `CC(=O)N[C@@H](CCC(N)=O)C(=O)N[C@@H](CO)C(=O)N[C@@H](CCC(N)=O)C(=O)N[C@@H](CCC(N)=O)C(=O)N[C@H](C(=O)N[C@@H](Cc1ccccc1)C(=O)N[C@]1(C)CCCCCCC=CCCC[C@@](C)(C(=O)N[C@@H](CCC(N)=O)C(N)=O)NC(=O)[C@H](CC(C)C)NC(=O)[C@H](CC(C)C)NC(=O)[C@H](CCCNC(=N)N)NC(=O)[C@H](Cc2c[nH]c3ccccc23)NC(=O)[C@H](CC(C)C)NC(=O)[C@H](CC(N)=O)NC1=O)[C@@H](C)O` (Ac-QSQQTF[R8]NLWRLL[S5]Q-NH2; staple 7-14), which helicity is on record?
The helicity was 77.8%.

Which helicity does the source give for `CC(=O)N[C@@H](CCC(N)=O)C(=O)N[C@@H](CO)C(=O)N[C@@H](CCC(N)=O)C(=O)N[C@@H](CCC(N)=O)C(=O)N[C@H](C(=O)N[C@@H](Cc1ccccc1)C(=O)N[C@]1(C)CCCCCCC=CCCC[C@@](C)(C(=O)N[C@@H](CCC(N)=O)C(=O)N[C@@H](CC(N)=O)C(N)=O)NC(=O)[C@H](CC(C)C)NC(=O)[C@H](CC(C)C)NC(=O)[C@H](CCCNC(=N)N)NC(=O)[C@](C)(Cc2c[nH]c3cc(Cl)ccc23)NC(=O)[C@H](CC(C)C)NC(=O)[C@H](CC(N)=O)NC1=O)[C@@H](C)O` (Ac-QSQQTF[R8]NL[X2]RLL[S5]QN-NH2; staple 7-14) here?
Its helicity is 60.9%.
